For one data set, the system named is Protease X. The format is biochemical, Streptomyces lividans. The following applies: for effect of additive on the protease's activity: additive at 20 mM. The method, then: (§1) The characteristics of the protease reaction catalyzed by this enzyme were determined using the synthetic substrate assay where various synthetic substrates are dissolved at a concentration of 100 mg/ml in dimethylsulfoxide (DMSO). 200 μl aliquots from bacterial culture supernatants were mixed with 780 μl of 5 mM Tris, 25 mM NaCl, pH 7, and incubated at the desired temperature Digestions were then initiated by the addition of 20 μl of substrate and the rate of absorbance at 405 nm was followed for several minutes.
^a The assays were performed for 2 min. at 65° C. at pH 7.5.

A short description of data set [1]: synthetic substrate assay of protease-containing S. lividans (pHL45) broth. The format is biochemical. The note with it: for Activity (dA/min): control broth activity subtracted. The method, then: as §1
Here, the broth from recombinant S. lividans containing pHL45, as well as the broth from an identical S. lividans culture containing a control plasmid only (pIJ699), were compared for proteolytic activity by directly assaying activity in the presence of several different substrates. This experiment was conducted at 37° C. pH 7.0 and 65° C. pH 7 5, in the presence of 10 mM calcium. The substrates tested were: succinyl-ala-ala-pro-phe-pNitroanilide, succinyl-tyr-leu-val-pNitroanilide, ala-pNitroanilide, and leu-pNitroanilide. […] The temperature optimum for the proteolytic reaction was determined using succinyl-ala-ala-pro-phe-pNitroanilide in 10 mM Tris, 25 mM NaCl, pH 7.0.

For a further data set, the system named is azocasein. Kind of data set: azocasein assay. It is filed as biochemical. The following applies: longer incubation times. How it is done:
After washing the column with buffer, the dialysed protein sample was loaded onto the column. The protein was eluted using a linear gradient of 0.0 to 0.5M NaCl. The eluate's A280 was monitored and 8 ml fractions were collected. […] Following the incubation, the assay reaction was terminated by the addition of 200 μl of 10% trichloroacetic acid and incubation at room temperature for several minutes. The solutions were then neutralized by adding 200 μl 0.2N NaOH to each sample. Samples were centrifuged 2 min. The supernatants were removed and the activity of the fractions was determined from the increase in absorbance at 420 nm.

The next data set concerns proteins. The data set is described as follows: peptide mapping of the protease. The format is biochemical. The note with it: fragments generated during peptide mapping of the protease.
[2] abbreviates: 20 mM additive, 2 min. at 65° C. at pH 7.5, 0.170 without additive.

Like-named read-outs stand apart in the source and are kept apart here.

Results on 5 molecules are retold here after patent US5516685A, “Isolation and characterization of a novel protease from Streptomyces lividans” (Amgen Inc., priority 1994, dated 1996).

For the molecule `O=C(O)CN(CCN(CC(=O)O)CC(=O)O)CC(=O)O` [EDTA, reference compound], the “Protease activity (dA/min) in presence of additive” value (shortened to “Protease activity (dA/min)”) with Protease X (pH 7.5) was 0.120 dA/min.

As to `[Cl-].[Cl-].[Mg+2]` [MgCl2], in the data set on Protease X (setting [2]), the “Protease activity (dA/min)” value is listed as 0.250 dA/min. Moreover, the “effect of additive on the protease's activity” value with Protease X (65° C., pH 7.5) is reported as “appears to enhance”.

As for `O=S(=O)(F)Cc1ccccc1` [PMSF, reference compound], in the data set with Protease X (1 mM additive, 2 min. at 65° C. at pH 7.5, 0.170 without additive), the “Protease activity (dA/min)” value turned out to be 0.000 dA/min. The “effect of additive on the protease reaction” value with Protease X (addition of PMSF, 65° C., pH 7.5) is recorded as “totally inhibited”.

In the case of `[Ca+2].[Cl-].[Cl-]` [CaCl2], the “Protease activity (dA/min)” value in the data set with Protease X (5 mM additive, 2 min. at 65° C. at pH 7.5, 0.170 without additive) came out at 0.235 dA/min; in the data set with Protease X (setting [2]), 0.251 dA/min. Further, in the data set on Protease X (65° C., pH 7.5), the “effect of additive on the protease's activity” value is recorded as “enhanced”.

B1: Protease X: novel protease [SEQ ID NO: 2] secreted into the culture medium by S. lividans (protein)
chain: MRITLPLLSTAVGLGLTAAVLGTGPAATAAAPQEPVRAAQLGYQPSAGSGEDAAANRAFFEAVVKSVAEKRAANPSAAAAVTVYYSATNAPSFRSQISRSAQIWNSSVSNVRLAESSSGADFAYYEGNDSRGSYASTDGHGSGYIFLDYRQNQQYDSTRVTAHETGHVLGLPDHYSGPCSELMSGGGPGPSCTNPYPNSTERSRVNQLWAYGFQAALDKALEKASQR
Turning to B1, the “temperature optimum for cleavage of succinyl-ala-ala-pro-phe-pNitroanilide” value in data set [1] (10 mM Tris, 25 mM NaCl, pH 7.0) amounted to 65 °C. Further, the “time for which catalytic rate remains linear” value in data set [1] (65° C.) was “at least 2 min”. The pH optimum in data set [1] (65° C. reaction) is listed as 7.5 pH. For the same molecule, the “thermal stability of the activity” value in data set [1] (70° C., initial catalytic rate very fast, enzyme apparently becomes denatured) is on record as “activity drops off dramatically”. Moreover, the “Activity (dA/min)” value in data set [1] (Temperature 30.000, 10 mM Tris, 25 mM NaCl, pH 7.0) amounted to 0.008 dA/min; in data set [1] (Temperature 40.000, 10 mM Tris, 25 mM NaCl, pH 7.0) it was 0.017 dA/min; in data set [1] (Temperature 50.000, 10 mM Tris, 25 mM NaCl, pH 7.0), 0.042 dA/min; in data set [1] (Temperature 60.000, 10 mM Tris, 25 mM NaCl, pH 7.0), 0.074 dA/min; in data set [1] (Temperature 65.000, 10 mM Tris, 25 mM NaCl, pH 7.0) it was 0.085 dA/min; in data set [1] (Temperature 70.000, 10 mM Tris, 25 mM NaCl, pH 7.0), 0.047 dA/min. Besides, the “Activity (dA/min)” value in data set [1] (no additive, 2 min. at 65° C. at pH 7.5) was 0.170 dA/min; in data set [1] (pH 6.000, 65° C. reaction), 0.048 dA/min; in data set [1] (pH 7.000, 65° C. reaction), 0.085 dA/min; in data set [1] (pH 7.500, 65° C. reaction), 0.190 dA/min; in data set [1] (pH 8.000, 65° C. reaction), 0.105 dA/min. Besides, the “proteolytic activity on substrate compared with control broth (pIJ699)” value in data set [1] (only substrate of four tested, 37° C. pH 7.0 and 65° C. pH 7 5, 10 mM calcium) is “showed activity above that of the control”. Moreover, the “temperature optimum in the azocasein assay” value with azocasein came out at 60 °C. For the same molecule, the cleavage site preference entry with proteins was “preferentially processes proteins amino-terminally of tyrosine”.
